Target: BTN3A expressed at the cell surface (human), O00481
Test: cell-based or functional assay

Sequence of BTN3A expressed at the cell surface (human), O00481 (O00481 30-513): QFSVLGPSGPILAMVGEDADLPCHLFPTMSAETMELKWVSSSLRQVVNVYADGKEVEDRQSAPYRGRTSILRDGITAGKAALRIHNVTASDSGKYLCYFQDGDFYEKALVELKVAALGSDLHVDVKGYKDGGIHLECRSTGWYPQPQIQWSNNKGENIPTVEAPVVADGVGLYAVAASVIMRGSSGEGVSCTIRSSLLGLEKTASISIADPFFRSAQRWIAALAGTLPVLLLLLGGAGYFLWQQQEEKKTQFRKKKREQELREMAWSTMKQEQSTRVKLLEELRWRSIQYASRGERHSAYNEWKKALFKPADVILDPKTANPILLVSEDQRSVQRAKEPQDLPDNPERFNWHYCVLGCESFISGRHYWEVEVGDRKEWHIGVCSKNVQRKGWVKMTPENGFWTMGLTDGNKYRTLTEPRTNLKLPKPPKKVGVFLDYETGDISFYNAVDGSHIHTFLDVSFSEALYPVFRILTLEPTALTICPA

Row | Binder | Jurkat-Vy9Vo2 TCR MOP activation at 0.5 nM (fold-change to medium) | Jurkat-Vy9Vo2 TCR MOP activation at 5 nM (fold-change to medium)
1 | bsAb021 (bispecific antibody) heavy: QVQLVQSGAEVKKPGASVKLSCKASGYIFTRYYMYWVKQRPGQGLEWIGEINPNNGGTKFNEKFKNRATLTVDKSISTAYMELSRLRSDDTAVYYCSREDDYDGTPFAMDYWGQGTLVTVSSGGGGSGGGGSGGGGSGGGGSDIQMTQSPSSLSASVGDRVTITCHASQNINVWLSWYQQKPGKAPKLLIYKASNLHTGVPSRFTGSGSGTDFTFTISSLQPEDIATYYCQQGQTYPYTFGQGTKLEIKGGGGSGGGGSGGGGSGGGGSQVQLVQSGVEVKKPGASVKVSCKASGYTFTNYYMYWVRQAPGQGLEWMGGINPSNGGTNFNEKFKNRVTLTTDSSTTTAYMELKSLQFDDTAVYYCARRDYRFDMGFDYWGQGTTVTVSSASTKGPSVFPLAPSSKSTSGGTAALGCLVKDYFPEPVTVSWNSGALTSGVHTFPAVLQSSGLYSLSSVVTVPSSSLGTQTYICNVNHKPSNTKVDKRVEPKSCDKTHTCPPCPAPEFEGGPSVFLFPPKPKDTLMISRTPEVTCVVVDVSHEDPEVKFNWYVDGVEVHNAKTKPREEQYNSTYRVVSVLTVLHQDWLNGKEYKCKVSNKALPASIEKTISKAKGQPREPQVYTLPPSREEMTKNQVSLTCLVKGFYPSDIAVEWESNGQPENNYKTTPPVLDSDGSFFLYSKLTVDKSRWQQGNVFSCSVMHEALHNHYTQKSLSLSPG light: EIVLTQSPATLSLSPGERATLSCRASKGVSTSGYSYLHWYQQKPGQAPRLLIYLASYLESGVPARFSGSGSGTDFTLTISSLEPEDFAVYYCQHSRDLPLTFGGGTKVEIKRTVAAPSVFIFPPSDEQLKSGTASVVCLLNNFYPREAKVQWKVDNALQSGNSQESVTEQDSKDSTYSLSSTLTLSKADYEKHKVYACEVTHQGLSSPVTKSFNRGEC | 1.6 | 1.5
2 | bsAb006 (bispecific antibody) heavy: QVQLVQSGVEVKKPGASVKVSCKASGYTFTNYYMYWVRQAPGQGLEWMGGINPSNGGTNFNEKFKNRVTLTTDSSTTTAYMELKSLQFDDTAVYYCARRDYRFDMGFDYWGQGTTVTVSSASTKGPSVFPLAPSSKSTSGGTAALGCLVKDYFPEPVTVSWNSGALTSGVHTFPAVLQSSGLYSLSSVVTVPSSSLGTQTYICNVNHKPSNTKVDKRVEPKSCDKTHTCPPCPAPEFEGGPSVFLFPPKPKDTLMISRTPEVTCVVVDVSHEDPEVKFNWYVDGVEVHNAKTKPREEQYNSTYRVVSVLTVLHQDWLNGKEYKCKVSNKALPASIEKTISKAKGQPREPQVYTLPPSREEMTKNQVSLTCLVKGFYPSDIAVEWESNGQPENNYKTTPPVLDSDGSFFLYSKLTVDKSRWQQGNVFSCSVMHEALHNHYTQKSLSLSPGGGGGSGGGGSGGGGSGGGGSDIQMTQSPSSLSASVGDRVTITCHASQNINVWLSWYQQKPGKAPKLLIYKASNLHTGVPSRFTGSGSGTDFTFTISSLQPEDIATYYCQQGQTYPYTFGQGTKLEIKGGGGSGGGGSGGGGSGGGGSQVQLVQSGAEVKKPGASVKLSCKASGYIFTRYYMYWVKQRPGQGLEWIGEINPNNGGTKFNEKFKNRATLTVDKSISTAYMELSRLRSDDTAVYYCSREDDYDGTPFAMDYWGQGTLVTVSS light: EIVLTQSPATLSLSPGERATLSCRASKGVSTSGYSYLHWYQQKPGQAPRLLIYLASYLESGVPARFSGSGSGTDFTLTISSLEPEDFAVYYCQHSRDLPLTFGGGTKVEIKRTVAAPSVFIFPPSDEQLKSGTASVVCLLNNFYPREAKVQWKVDNALQSGNSQESVTEQDSKDSTYSLSSTLTLSKADYEKHKVYACEVTHQGLSSPVTKSFNRGEC | 1 | 1

Further lines, results first:

Row | Jurkat-Vy9Vo2 TCR MOP activation at 0.5 nM (fold-change to medium) | Jurkat-Vy9Vo2 TCR MOP activation at 5 nM (fold-change to medium) | Binder
3 | 1 | 1 | bsAb002 (bispecific antibody) heavy: QVQLVQSGVEVKKPGASVKVSCKASGYTFTNYYMYWVRQAPGQGLEWMGGINPSNGGTNFNEKFKNRVTLTTDSSTTTAYMELKSLQFDDTAVYYCARRDYRFDMGFDYWGQGTTVTVSSASTKGPSVFPLAPSSKSTSGGTAALGCLVKDYFPEPVTVSWNSGALTSGVHTFPAVLQSSGLYSLSSVVTVPSSSLGTQTYICNVNHKPSNTKVDKRVEPKSCDKTHTCPPCPAPEFEGGPSVFLFPPKPKDTLMISRTPEVTCVVVDVSHEDPEVKFNWYVDGVEVHNAKTKPREEQYNSTYRVVSVLTVLHQDWLNGKEYKCKVSNKALPASIEKTISKAKGQPREPQVYTLPPSREEMTKNQVSLTCLVKGFYPSDIAVEWESNGQPENNYKTTPPVLDSDGSFFLYSKLTVDKSRWQQGNVFSCSVMHEALHNHYTQKSLSLSPGGGGGSGGGGSGGGGSGGGGSQVQLVQSGAEVKKPGASVKLSCKASGYIFTRYYMYWVKQRPGQGLEWIGEINPNNGGTKFNEKFKNRATLTVDKSISTAYMELSRLRSDDTAVYYCSREDDYDGTPFAMDYWGQGTLVTVSSGGGGSGGGGSGGGGSGGGGSDIQMTQSPSSLSASVGDRVTITCHASQNINVWLSWYQQKPGKAPKLLIYKASNLHTGVPSRFTGSGSGTDFTFTISSLQPEDIATYYCQQGQTYPYTFGQGTKLEIK light: EIVLTQSPATLSLSPGERATLSCRASKGVSTSGYSYLHWYQQKPGQAPRLLIYLASYLESGVPARFSGSGSGTDFTLTISSLEPEDFAVYYCQHSRDLPLTFGGGTKVEIKRTVAAPSVFIFPPSDEQLKSGTASVVCLLNNFYPREAKVQWKVDNALQSGNSQESVTEQDSKDSTYSLSSTLTLSKADYEKHKVYACEVTHQGLSSPVTKSFNRGEC
4 | 1 | 0.8 | bsAb009 (bispecific antibody) heavy: QVQLVQSGVEVKKPGASVKVSCKASGYTFTNYYMYWVRQAPGQGLEWMGGINPSNGGTNFNEKFKNRVTLTTDSSTTTAYMELKSLQFDDTAVYYCARRDYRFDMGFDYWGQGTTVTVSSASTKGPSVFPLAPSSKSTSGGTAALGCLVKDYFPEPVTVSWNSGALTSGVHTFPAVLQSSGLYSLSSVVTVPSSSLGTQTYICNVNHKPSNTKVDKRVEPKSCDKTHTCPPCPAPEFEGGPSVFLFPPKPKDTLMISRTPEVTCVVVDVSHEDPEVKFNWYVDGVEVHNAKTKPREEQYNSTYRVVSVLTVLHQDWLNGKEYKCKVSNKALPASIEKTISKAKGQPREPQVYTLPPSREEMTKNQVSLTCLVKGFYPSDIAVEWESNGQPENNYKTTPPVLDSDGSFFLYSKLTVDKSRWQQGNVFSCSVMHEALHNHYTQKSLSLSPG light: EIVLTQSPATLSLSPGERATLSCRASKGVSTSGYSYLHWYQQKPGQAPRLLIYLASYLESGVPARFSGSGSGTDFTLTISSLEPEDFAVYYCQHSRDLPLTFGGGTKVEIKRTVAAPSVFIFPPSDEQLKSGTASVVCLLNNFYPREAKVQWKVDNALQSGNSQESVTEQDSKDSTYSLSSTLTLSKADYEKHKVYACEVTHQGLSSPVTKSFNRGECGGGGSGGGGSGGGGSGGGGSQVQLVQSGAEVKKPGASVKLSCKASGYIFTRYYMYWVKQRPGQGLEWIGEINPNNGGTKFNEKFKNRATLTVDKSISTAYMELSRLRSDDTAVYYCSREDDYDGTPFAMDYWGQGTLVTVSSGGGGSGGGGSGGGGSGGGGSDIQMTQSPSSLSASVGDRVTITCHASQNINVWLSWYQQKPGKAPKLLIYKASNLHTGVPSRFTGSGSGTDFTFTISSLQPEDIATYYCQQGQTYPYTFGQGTKLEIK

From patent US20260265379A1
